Source: patent US20200308299A1, “ANTI-GPC-1 ANTIBODY” (National University Corporation Kochi University, priority 2017, published 2020)
Where a chain is given by its changes, count along the chain named.

B1: clone 01a026: anti-human Glypican-1 antibody, heavy chain SEQ ID NO: 146, light chain SEQ ID NO: 148 (antibody)
heavy: MKHLWFFLLLVAAPRWVLSQVHLQQSGAELVRPGTSVKMSCKAAGYTFTNYWIGWVKQRPGHGLEWIGDIYPGGGYTHYNEKFKGKATLTADTSSSTAYMQLSSLTSEDSAIYYCARERVYYDGSRFFDVWGAGTTVTVSSAKTTAPSVYPLAPVCGDTTGSSVTLGCLVKGYFPEPVTLTWNSGSLSSGVHTFPAVLQSDLYTLSSSVTVTSSTWPSQSITCNVAHPASSTKVDKKIEPRGPTIKPCPPCKCPAPNLLGGPSVFIFPPKIKDVLMISLSPIVTCVVVDVSEDDPDVQISWFVNNVEVHTAQTQTHREDYNSTLRVVSALPIQHQDWMSGKEFKCKVNNKDLPAPIERTISKPKGSVRAPQVYVLPPPEEEMTKKQVTLTCMVTDFMPEDIYVEWTNNGKTELNYKNTEPVLDSDGSYFMYSKLRVEKKNWVERNSYSCSVVHEGLHNHHTTKSFSRTPGK
light: MRLLAQLLGLLMLWVPGSSGDIVMSQSPKFLPVSAGDRVTMTCKASQSVGNNVAWYQQKPGQSPKLLIYYASNRYTGVPDRFTGSGSGTDFTFTISSVQVEDLAVYFCQQHYSSPWTFGGGTKLEIKRADAAPTVSIFPPSSEQLTSGGASVVCFLNNFYPKDINVKWKIDGSERQNGVLNSWTDQDSKDSTYSMSSTLTLTKDEYERHNSYTCEATHKTSTSPIVKSFNRNEC
B2: clone 01a016: anti-human Glypican-1 antibody, heavy chain SEQ ID NO: 134, light chain SEQ ID NO: 136 (antibody)
heavy: MKHLWFFLLLVAAPRWVLSQVHLQQSGPELVKPGASVKISCKASGYTFTDYYINWVKQKPGQGLEWIGYIDPYNDGSKYNEKFKGKATLTSDKSSSTAYMELSSLTSEDSAVYYCARTPYYSFYSYGFYFDYWGQGTTLTVSSAKTTAPSVYPLAPVCGDTTGSSVTLGCLVKGYFPEPVTLTWNSGSLSSGVHTFPAVLQSDLYTLSSSVTVTSSTWPSQSITCNVAHPASSTKVDKKIEPRGPTIKPCPPCKCPAPNLLGGPSVFIFPPKIKDVLMISLSPIVTCVVVDVSEDDPDVQISWFVNNVEVHTAQTQTHREDYNSTLRVVSALPIQHQDWMSGKEFKCKVNNKDLPAPIERTISKPKGSVRAPQVYVLPPPEEEMTKKQVTLTCMVTDFMPEDIYVEWTNNGKTELNYKNTEPVLDSDGSYFMYSKLRVEKKNWVERNSYSCSVVHEGLHNHHTTKSFSRTPGK
light: MRLLAQLLGLLMLWVPGSSGDIVLTQSPASLAVSLGQRATISCRASKSVSTSSYSYMHWYQQKPGQPPKLLIKYASYLESGVPARFSGSGSGTDFTLNIHPVEEEDAATYYCQHSREFPLTFGAGTKLELKRADAAPTVSIFPPSSEQLTSGGASVVCFLNNFYPKDINVKWKIDGSERQNGVLNSWTDQDSKDSTYSMSSTLTLTKDEYERHNSYTCEATHKTSTSPIVKSFNRNEC
B3: clone 01a030: anti-human Glypican-1 antibody, heavy chain SEQ ID NO: 154, light chain SEQ ID NO: 156 (antibody)
heavy: B1 heavy with H22Q, F127Y
light: B1 light with V23K, S25T
B4: clone 4: anti-Glypican-1 antibody, heavy chain SEQ ID NO: 198, light chain SEQ ID NO: 200; sequence from WO 2015/098112 (antibody)
heavy: AVTLDESGGGLQTPGRALSLVCKASGFTFSRYAMYWVRQAPGKGLEFVAGIGNTGRYTGYGSAVKGRATISRDSGQSTVRLQLNNLRAEDTGNYYCAKSVSPYCCDAADIDAWGHGTEVIVSS
light: ASTQPSSVSANPGETVKITCSGGSSGYAYGWYQQKSPGSAPVTLLYSNNNRPSDIPSRFSGSKSGSTATLTITGVQAEDEAVYFCGSVDSSSYAGIFGAGTTLTVL
B5: clone 01a009: anti-human Glypican-1 antibody, heavy chain SEQ ID NO: 150, light chain SEQ ID NO: 152 (antibody)
heavy: MKHLWFFLLLVAAPRWVLSEVQLQQSGPELVKPGASVEISCKASGYSFTGYFMNWVKQSQGKSLEWIGRINPDNGDIFYNQKFKGKATLTVDKSSSTAHMELRSLTSEDSAVYYCARSWNWYFDVWGAGTTVTVSSAKTTAPSVYPLAPVCGDTTGSSVTLGCLVKGYFPEPVTLTWNSGSLSSGVHTFPAVLQSDLYTLSSSVTVTSSTWPSQSITCNVAHPASSTKVDKKIEPRGPTIKPCPPCKCPAPNLLGGPSVFIFPPKIKDVLMISLSPIVTCVVVDVSEDDPDVQISWFVNNVEVHTAQTQTHREDYNSTLRVVSALPIQHQDWMSGKEFKCKVNNKDLPAPIERTISKPKGSVRAPQVYVLPPPEEEMTKKQVTLTCMVTDFMPEDIYVEWTNNGKTELNYKNTEPVLDSDGSYFMYSKLRVEKKNWVERNSYSCSVVHEGLHNHHTTKSFSRTPGK
light: MRLLAQLLGLLMLWVPGSSGDIQMTQSPASLSASVGETVTITCRASENIYSYLAWYQQKQGKSPQLLVYNAKTLAEGVPSRFSGSGSGTQFSLKINSLQPEDFGSYYCQHHYGTPYTFGSGTKLEIKRADAAPTVSIFPPSSEQLTSGGASVVCFLNNFYPKDINVKWKIDGSERQNGVLNSWTDQDSKDSTYSMSSTLTLTKDEYERHNSYTCEATHKTSTSPIVKSFNRNEC
B6: clone 01a002: anti-human Glypican-1 antibody, heavy chain SEQ ID NO: 126, light chain SEQ ID NO: 128 (antibody)
heavy: MKHLWFFLLLVAAPRWVLSEVQLQQSGPELVKPGASVKISCKSSGYSFTRYYMHWVKHSPEKSLEWIGEINPSTGDTTYNQKFKAKATLTVDKSSSTAYMQLKSLTSEDSAVYYCAREKRDDGVLAYWGQGTLVTVSSAKTTAPSVYPLAPVCGDTTGSSVTLGCLVKGYFPEPVTLTWNSGSLSSGVHTFPAVLQSDLYTLSSSVTVTSSTWPSQSITCNVAHPASSTKVDKKIEPRGPTIKPCPPCKCPAPNLLGGPSVFIFPPKIKDVLMISLSPIVTCVVVDVSEDDPDVQISWFVNNVEVHTAQTQTHREDYNSTLRVVSALPIQHQDWMSGKEFKCKVNNKDLPAPIERTISKPKGSVRAPQVYVLPPPEEEMTKKQVTLTCMVTDFMPEDIYVEWTNNGKTELNYKNTEPVLDSDGSYFMYSKLRVEKKNWVERNSYSCSVVHEGLHNHHTTKSFSRTPGK
light: B1 light with V23Q, S25T, W116L, G120A, I126L

What follows are molecules tested on TE14 cells (assay: ADC assay combining anti-GPC-1 antibody and MMAF binding secondary antibody, TE14 cells). Settings: primary antibody plus MMAF secondary antibody.
Type: cell-based
Protocol: FIG. 1 depicts a schematic diagram of an ADC used in an assay. This Example used a secondary antibody (MORADEC) to the anti-GPC1 antibody made in Example 1, to which an anticancer agent (MMAF) was bound via a linker.
2000 TE14 cells were added to a 96-well plate at 80 μl. The cells were cultured overnight at 37° C. in a 5% CO2 incubator. The next day, 10 μl of an anticancer agent bound secondary antibody and 10 μl of a primary antibody concentrated 10-fold relative to the final concentration was added to each well, so that the total amount was 100 μl. The cells were cultured for 6 days at 37° C. in a 5% CO2 incubator. The cell viability was measured by using a CellTiter-Glo Luminescent Cell Viability Assay reagent to detect the amount of ATP. RPMI1640+10% FBS+1% PS was used as the medium. The final concentrations of the primary antibody were 0, 0.004, 0.0156, 0.0625, 0.25, and 1.0 nM. 2 μg/ml of Fab-aMFc-CL-MMAF (model number: AM202AF-50, Moradec) was used as the secondary antibody.
For B1, the “EC50 values against TE14 cells” value was “excellent EC50 values”.
With B2 the “EC50 values against TE14 cells” value was “excellent EC50 values”.
In the case of B3, the “EC50 values against TE14 cells” value is reported as “excellent EC50 values”.
For B4, the “EC50 values against TE14 cells” value was “excellent EC50 values”.
With B5 the “EC50 values against TE14 cells” value was “excellent EC50 values”.
For B6, the “EC50 values against TE14 cells” value was “excellent EC50 values”.

These molecules were tested on DU145 cells (assay: ADC assay combining anti-GPC-1 antibody and MMAF binding secondary antibody in DU145 cells). Settings: primary antibody plus MMAF secondary antibody 2 μg/ml, 3 days.
Type: cell-based
Protocol: 2000 DU145 cells were added to a 96-well plate at 80 μl. The cells were cultured overnight at 37° C. in a 5% CO2 incubator. The next day, 10 μl each of anticancer agent binding secondary antibody (2 μg/ml) and primary antibody concentrated 10-fold relative to the final concentration was added to each well, so that the total amount was 100 μl. The cells were cultured for 3 days at 37° C. in a 5% CO2 incubator. The cell viability was measured by using a CellTiter-Glo Luminescent Cell Viability Assay reagent to detect the amount of ATP. RPMI1640+10% FBS+1% PS was used as the medium. The final concentrations of the primary antibodies were […]. 2 μg/ml of Fab-aMFc-CL-MMAF (model number AM202AF-50, Moradec) was used as the secondary antibody. The EC50 value was analyzed with GraphPad Prism 6. The same experiment was conducted using 4000 MDA-MB231 cells as the control.
In the case of B6, the “growth suppressing effect against DU145 cells” value is reported as “high growth suppressing effect”.

Same assay, conditions: primary antibody plus MMAF secondary antibody, 3 days
With B1 the “EC50 values against DU145 cells” value was “excellent EC50 values”.
For B2, the “EC50 values against DU145 cells” value was “excellent EC50 values”.
B3 was tested, and the “EC50 values against DU145 cells” value was “excellent EC50 values”.
With B4 the “EC50 values against DU145 cells” value was “excellent EC50 values”.
In the case of B5, the “EC50 values against DU145 cells” value is reported as “excellent EC50 values”.
For B6, the “EC50 values against DU145 cells” value was “excellent EC50 values”.
